For assay [1], the target named is T1, rabbit skeletal muscle actin (rabbit, UniProt P68135 1-377). Description: co-sedimentation.
Assay [2] addresses T1, rabbit skeletal muscle actin. Description: pyrene-actin polymerisation kinetics.
Assay [3] shares this target. The assay can be described thus: pyrene-actin polymerisation kinetics. The source holds these as a separate data set.

B1: GST-tensin p29(1-263) (domain or fragment)
chain: MDFGSVMNQAATPCSPAVNYELPSPGQSITKQVDTPDATRSPRGGQAHRKASRSMSVTAAMESSCELDLVYITERIIAVSYPSTAEEQSFRSNLREVAHMLKSKHGDNYVLFNLSERRHDISKLHPKVLDFGWPDLHTPALEKICSICKAMDTWLNAAAHNVVVLHNKGNRGRLGVVVAAYMHYSNISASADQALDRFAMKRFYEDKVVPVGQPSQKRYIHYFSGLLSGSIKMNNKPLFLHHVIMHGIPNFESKGGCRPFLKI
As usually defined, the stoichiometry N is a count of units in the complex or per binding partner. As for B1, the “stoichiometry N” value in assay [1] is 2 to 4 actin subunits per tensin fragment.

B2: full-length epitope-tagged recombinant chick cardiac muscle tensin (natural protein)
chain: MDFGSVMNQAATPCSPAVNYELPSPGQSITKQVDTPDATRSPRGGQAHRKASRSMSVTAAMESSCELDLVYITERIIAVSYPSTAEEQSFRSNLREVAHMLKSKHGDNYVLFNLSERRHDISKLHPKVLDFGWPDLHTPALEKICSICKAMDTWLNAAAHNVVVLHNKGNRGRLGVVVAAYMHYSNISASADQALDRFAMKRFYEDKVVPVGQPSQKRYIHYFSGLLSGSIKMNNKPLFLHHVIMHGIPNFESKGGCRPFLKIYQAMQPVYTSGIYNVQGDSQTGICITIEPGLLLKGDILLKCYHKKFRSPTRDVIFRVQFHTCAVHDLDIVFGKEDLDEAFRDERFPEYGKVEFVFSYGPEKIQGMEHLENGPSVSVDYNTSDPLIRWDSYENFNIQREDSTEGTWAEPALPGKHLEKEVGHTQGPLDGSLYAKVKKKDSLHGSIGAVNAARLPLSAAPNHVEHTLSVSSDSGNSTASTKTDRTDEPGAPGAPTGHAVLSPEEKRELDRLLVGFGLESAPPMHNHAPGPAPARLPAGPGRHVVPAQVHVNGAGTPLLAERETDILDDELPNQDGHSVGSLGTLSSLDGTTTASEAGFHEAPRVGSLSSLPNGPASYNGAEKMLKEGLYEAEPLSNGAYPYSNQNTLMGHHLRDPLAHLRPSASAQEHLAGYPQRQPASTSPAWLQPPVPQPYLYGYDLPSAHRSQSFPAVGTAKYEANLALPQAPARSTSSREAVQRGLNSWQQQGGSRPPSQLHDGGLESHSPSLSSCSPQPSPLQPMPPHSHSMPEFPRAPSRREIEQSIEALDVLMLDLAPSVHKSQSVPSAATRQDKPAAMLSSLSAQPLSGHYAQPTPQVVQPRSFGTSVGTDPLAKAYSPGPLVPAARSTAEPDYTVHEYRETYTPYSYQPVPEPRSYGSAPASILPLSASYSPAGSQQLLVSSPPSPTAPAQSQLPHKGLESYEDLSRSGEEPLNLEGLVAHRVAGVQSREKSPEESTVPARRRTPSDSHYEKSSPEPGSPRSPTVLSPEVVSTIAANPGGRPKEPHLHSYKEAFEEMESASPSSLTSGGVRSPPGLAKTPLSALGLKPHNPADILLHPVGELEGEAGADSEEEPRSYVESVARTATTGRAGNLPAAQPVGLEVPARNGAFGNSFTVPSPVSTSSPIHSVDGASLRSYPSEGSPHGTVTPPHAVAETAYRSPMVSQTPSAHSSYQTSSPSSFQAGTLGSPYASPDYPDGRAGFQPDPQARQQPQVSVVGVHALPGSPRTLHRTVATNTPPSPGFGRRAANPAVASVPGSPGLGRHTVSPHAPPGSPSLARHQMAAVPPGSPMYGYSSPEERRPTLSRQSSASGYQPPSTPSFPVSPAYYPGTSTPHSSSPDSAAYRQGSPTPQPALPEKRRMSAGERSNSLPNYATVNGKASSPLSSGMSSPSSGSAVAFSHTLPDFSKFSMPDISPETRANVKFVQDTSKYWYKPDISREQAIALLKDREPGAFIIRDSHSFRGAYGLAMKVASPPPTVMQQNKKGDITNELVRHFLIETSPRGVKLKGCPNEPNFGCLSALVYQHSIMPLALPCKLVIPDRDPMEEKKDAASTTNSATDLLKQGAACNVLFINSVEMESLTGPQAISKAVAETLVADPTPTATIVHFKVSAQGITLTDNQRKLFFRRHYPLNTVTFCDLDPQERKWTKTDGSGPAKLFGFVARKQGSTTDNVCHLFAELDPDQPAAAIVNFVSRVMLGSGQKR
By Kd is commonly meant the free concentration of one partner at which half of the binding sites on the other are occupied at equilibrium, for simple one-to-one binding. Low values mean a tighter complex, high ones a looser complex. On to B2, for which the equilibrium dissociation constant (Kd) in assay [2] is 10 to 100 nM; in assay [3], roughly 20 nM; in assay [1], 100 nM. In addition, the “stoichiometry N” value in assay [1] was found to be 11 actin subunits per tensin.

Source of the values: paper PMC2120063 (The Journal of Cell Biology, 1994).
